Data from patent publication US5885772.

Target: F-actin
Assay: cosedimentation with F-actin through a sucrose cushion, SDS-PAGE

Kd: 53 nM | stoichiometry (actin monomers per MacMARCKS): 12
Substance: MacMARCKS
